Data on 139 substances can be found in the supplement of paper PMC12042874.

± gives the uncertainty stated by the source.

A short description of the series: amyloid nucleation score (Sup35N fusion, yeast selection) (log enrichment); library NNK1; higher = more nucleation; inactive = no reads after selection. The method, boiled down: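 Libraries of peptides of 20 random codons fused to Sup35N were expressed in psi-negative yeast and induced 24 hours with 100 μM copper sulfate. Selection was 7 days at 30°C on medium lacking adenine and uracil, and plasmid inserts were Illumina-sequenced before and after selection. Nucleation score is the DiMSum log enrichment of output over input reads, centred on the mode score of non-aggregating sequences, and sequences with under 100 input reads were left out.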

Turning to PFHLF, the amyloid nucleation score was 0.831 ± 0.39.
In the case of RCVMFQVRHSNIGRKRDYGI, the amyloid nucleation score turned out to be 0.389 ± 1.2.
Next, INRTTRNLLSRCRWYNCYKR: 0.155 ± 1; LVLIRKLVWGSGSDTLWVRR: “inactive”; VPTSSFGGFVYVGVRVMCS: -0.487 ± 0.8.
With RTFFRFKMSPWCINDYIMMR, the amyloid nucleation score amounted to 0.222 ± 1.2.
To YSSNWIMLIIRVMIHFFSSR belongs 3.46 ± 0.17.
To TYEYTRWGWYYLS belongs 1.11 ± 0.12; to TFLTCYRPGPIDNSWRIVSM, 1.1 ± 0.41; to SLWIKQLRERVANFLAGFEG, “inactive”.
LRNAMVMSLYN returned an amyloid nucleation score of -0.423 ± 0.72.
Next, TRVEFEQGVVFGELYSVFRV: 0.351 ± 0.39.
For FKLMWNFQDLLVLLLRDRRY, the amyloid nucleation score worked out at 0.048 ± 0.62.
To KLIVWDKCSTCHSDVVLLFK belongs 0.734 ± 0.97; to RLLDFMFVGVLLACFGVQRW, 1.39 ± 0.29.
Consider YGSGPNDWLYVWGNSLWQKV, for which the amyloid nucleation score was -0.106 ± 0.66.
To CNQYWVSQ belongs 0.322 ± 0.26; to FIWIGRKRRGGICCDEWKYG, 0.196 ± 1.6.
Next, PYHEMGIYYLGGLYSK: 0.743 ± 1.1; SYQLSSVMDLAWMTHSTFGS: 1.8 ± 0.2; DYAGWPYLPSMHQATLQDAR: 0.275 ± 1.2.
Next, TRVGLVPSLGDRSDNYIVRI: 0.087 ± 0.39; IPKVRTRVLGIISTTSLLGG: 0.037 ± 0.97.
On to MLLIVPLFDSEVVWPGVVWT, for which the amyloid nucleation score was -0.235 ± 0.66.
In turn, PSMARPAARTHVDNNRWR yielded an amyloid nucleation score of -0.051 ± 0.56.
To YIDKG belongs -0.893 ± 1.9; to TGLLSR, 1.33 ± 0.9.
In turn, CCGVDAFSSRESR registered an amyloid nucleation score of 1.55 ± 0.41.
The substance QAHLNLVSRIIIMWS yielded an amyloid nucleation score of 0.067 ± 0.79.
To SRHFFTAKCQRPRFLWKSDR belongs -0.172 ± 1.2.
Next, EIMKCFNFTHMVEMKSMKRN: 2.62 ± 0.087.
Take DLLLRSSTSTVVCIMNRTTS: the amyloid nucleation score turned out to be 3.94 ± 0.076.
Next, VGPAANHIGHIVRWCRPGGP: 0.33 ± 0.5.
Next, TASCVIMELPVGTNDKYVWT: 0.296 ± 0.5; TFMNRLPMNLDLLIGLTCNL: 0.492 ± 0.38; DIAHC: -0.464 ± 0.59.
CNHSTSFVEVVERL registered an amyloid nucleation score of -0.085 ± 0.42.
Next, YAYYLSDRVCFD: 0.303 ± 0.4; RLRNLYLQSFDRLCAVCKGY: 0.197 ± 0.35.
To AYSRNYYQYAVNEFGDVVFE belongs 0.312 ± 1.1.
Substance LTGYTAS registered an amyloid nucleation score of 0.295 ± 0.37.
Next, VLVRAWTLDCCLLFVMMVVS: 0.558 ± 0.46.
To FTFSFLYFFQWCHTGAPARF belongs 0.602 ± 0.73; to SFFDVLFKITWYNRVLMC, 0.362 ± 0.79; to VFHVAKSRRVTHPSILISL, 1.53 ± 0.74.
Next, RVEFHGIR: 1.62 ± 0.32.
SLWVWRNAWLVHLYRL registered an amyloid nucleation score of -0.206 ± 0.54.
GLVFWNIYCRNFYLL had an amyloid nucleation score of 6.83 ± 0.078.
The substance INVIPDLD registered an amyloid nucleation score of -0.572 ± 0.5.
Next, GFFLSPLVRIISMTEMKVMK: 0.571 ± 1.2; FGHKCAIFGNWEF: -0.933 ± 0.84; CECRRANVADPFRVSCWAKF: 0.156 ± 1.2.
Next, DAMFLL: -0.358 ± 0.31; VAITCLKIANGDRGVLQTLC: 0.264 ± 0.86.
For VYSYYLLLGLW, the amyloid nucleation score amounted to 3.66 ± 0.084.
Next, SFFDLSEA: 0.918 ± 1.1.
NWGVSNRVVWGRVPMLSVPH registered an amyloid nucleation score of -0.284 ± 0.98.
To DFARNQDGSFVWN belongs -0.575 ± 0.36; to MMLLYCRLIWSPISDRICQF, -0.498 ± 0.42; to TFIFAGDIT, 1.38 ± 0.17.
For SFIYTSPGFCWRDMFDWQVP, the amyloid nucleation score was determined as 0.339 ± 0.32.
WTQAPDSAVGDGWGSNGSEA yielded an amyloid nucleation score of 0.013 ± 0.47.
Next, DGSNRHLSRSMVGRGRT: 0.335 ± 0.8; TSPTYAYCYCLSTNRRQKCL: -0.957 ± 1.1; WCVWFVQISCMVRVGAKLNS: 0.184 ± 0.38.
Next, GTNFS: 0.498 ± 0.97; CYLPWDSKNGVEDLYWYEFK: 1.79 ± 0.13; CRKVITRVGSVTVTGGFYLI: -0.374 ± 0.67.
Next, TSFVSETGFTWVCVFLVAGT: 0.616 ± 1.1.
IDIWVLLMNHGMKASPGDLE came in with an amyloid nucleation score of -0.479 ± 0.42.
The substance FCVSQVFRDLS displayed an amyloid nucleation score of -0.315 ± 0.37.
Next, NVGVMGFISASVWLFCWGIF: -0.783 ± 0.33; LNSLNVGLVEDKQYILYER: 1.68 ± 0.39; NGSYCKQILSRYVCRGECLH: -1.85 ± 1.4.
To KKDSTYSRSRLDPFRLSVSV belongs -0.14 ± 0.5.
Take VMFYSLHFCGVEDFFTGAER: the amyloid nucleation score stood at 0.834 ± 0.57.
WNFLFSCLMLGSSWMACDWQ gave an amyloid nucleation score of -0.305 ± 0.76.
To SCTLYYTSGSIMYAVMVLQE belongs 0.526 ± 0.49.
To SNVVNFDNNEDYLDTCRYLI belongs 0.734 ± 0.97; to TNRPLVLTDNVNKSLKMRLP, 0.638 ± 0.27.
To MLHICCFQSVHLMDWSSH belongs -0.144 ± 0.67.
Regarding HLWLFAGYMLLLKPKLKVCT, the amyloid nucleation score is -0.625 ± 0.41.
Next, CHLIL: 0.115 ± 0.34; YKATRRRQLLSPVIGEDQIG: 0.208 ± 0.32.
To KTYRAIQLSYRIPMKMFRFD belongs -0.3 ± 0.25; to RFLRAPGLCSVCSCE, -0.729 ± 0.85; to LIFLLSQSIVVMQWSGRKKQ, “inactive”.
Next, DFVLIIFFCPCRYCSSTHTT: 3.32 ± 0.2.
GKERCDRMNKTLFLTFSYII: the amyloid nucleation score is -0.281 ± 0.71.
For CRIVKARDGC, the amyloid nucleation score is -1.23 ± 2.4.
To ICSWVHDQWAFYYISLYYVK belongs -1.2 ± 0.74.
On to HNQCHVKYDYHYL, for which the amyloid nucleation score was -0.183 ± 0.78.
Next, LFFVPMARVW: 0.01 ± 0.54; VGFYWNGWTTKGCWDNSWVL: 0.382 ± 0.55; VLDVVVCSSWGDLKRNLRPC: 3.29 ± 0.11.
To LRIHGSTLRISLW belongs 1.64 ± 0.28; to LSTDQLVSSLKCR, 0.404 ± 0.41.
Substance CIGNCYGWLSDLSWWSCPSS registered an amyloid nucleation score of 0.676 ± 0.3.
Substance IHVLADIYCVWGGLKEFWTS showed an amyloid nucleation score of 0.374 ± 0.65.
Next, TFVLYGCDRKVFRRNVVTAS: 0.316 ± 0.35; LAILMMCLLWTDLAKVLCPH: -0.015 ± 0.69; PTYTGVLSLN: 0.341 ± 0.56.
Next, VFNHTVPQSIRFYTYNRSSR: 3.87 ± 0.078.
Substance TGSLVFLTLTLLLVCYLPIT gave an amyloid nucleation score of 0.302 ± 0.43.
To RLMVRGLDGKTFHSFFDSIL belongs “inactive”; to FFGFMILNYKFSK, “inactive”.
Next, NRAMQVFPI: “inactive”; FGHYFDTLKPYSRALWRVVS: -0.641 ± 0.61.
Regarding VAIRTKPLYLDEYIFMDHMP, the amyloid nucleation score is 0.459 ± 0.68.
As to KPLILLCHLMGTMSTKCKDM, the amyloid nucleation score is -0.098 ± 0.26.
Next, LYLLSDNFR: 1.68 ± 0.72; NRPHTTYFFSFKSQF: 5.61 ± 0.063.
In the case of ARSFETLLTTSRGGKVDWLT, the amyloid nucleation score was -0.272 ± 0.24.
Next, FSSNLLECRCLWKTQASNST: 0.271 ± 0.33.
VKYLVIL showed an amyloid nucleation score of -0.618 ± 0.47.
To NDDRFSLLCGRGRSGLSEWC belongs “inactive”; to DIYRRSVGGRWLRLFSRRVV, 0.209 ± 0.39.
To FLWIA belongs -0.012 ± 0.56; to PGSKAWFGSLISCLTPWVLR, -0.563 ± 0.85.
Next, IECCFAYGRYLMWVGMYGSK: 0.79 ± 0.59.
The substance IPLVVVNPSARFRLRTKIIR showed an amyloid nucleation score of 0.908 ± 0.88.
To SIFVFRLYFLYGLV belongs 0.606 ± 0.44.
Next, RSGNVAQEMSMHPTWYEWS: 0.954 ± 0.31; NADVTCVISGLRKTYCVSDD: 0.577 ± 0.64.
To RKCWGSKEGVKKT belongs -0.62 ± 0.39; to GDIRGQMCMWYLW, -1.73 ± 2.7; to YCLQRQRRKGRSRSSMPEDE, 1.52 ± 0.52.
SYPFWYSHMIHCYRFAIFGL yielded an amyloid nucleation score of -2.73 ± 2.4.
To RRGGDSMDYNCFSARSRAFM belongs -0.146 ± 0.71; to ICAPVEIL, -0.176 ± 0.76; to FENFVASFLPNFGITLRKGQ, 0.043 ± 0.24.
To INMRKYSNTGSGRLIFNFAF belongs 6.039 ± 0.052; to GAVIRRWVIGSGALRDSCND, 0.382 ± 1.2.
To RLRWI belongs -0.057 ± 0.23; to TYRVLGWMYTCW, -0.809 ± 1.1; to LAPALRTETQICRRIHSVQL, 1.62 ± 0.26.
For the substance LRSSVSFGQLSRNPHAGSSH, the amyloid nucleation score is -1.4 ± 1.4.
To YKIVIKSGQSAN belongs -0.252 ± 0.28; to YVVWQFNWLDTTHHFFELSG, -0.022 ± 0.69.
